We go through six molecules from patent US20240327518A1 (BETTA PHARMACEUTICALS, published 2024).

B1: antibody 1 (VHH)
VHH: QVQLVESGGGLVQAGGSLRLSCAASGRSFSSSGMGWFRQAPGKDREFVATINSSGGDTYYRDSVEGRFTTSRDNAKNTMSLQMNDLKPEDTAVYYCAAKEGGGPSSIPAIYDYWGQGTQVTVSS
notes: expressed in mammalian cells
B2: antibody 5 (VHH)
VHH: B1 VHH with R61A, Y111F
B3: antibody 2 (VHH)
VHH: QVQLVESGGGLVQPGGSLSLSCVASGFTFSSYAMRWVRQAPGKEPEWVAGINTGSEIVVYANSVRGRFAISRDNARDTLFLQMNSLKPEDTAVYYCATGLVSAEHDGIWGQGTQVTVSS
B4: antibody 3 (VHH)
VHH: EVQLVESGGGSVQTGGSLRLSCVASGRDFLTYGMGWFRQAPGKEREFVASINWSGSMTYYADSVKGRFTISRDNAKNTVYLQMNSLKPGDTAVYICAARRGAVTYASSNEYEHWGQGTQVTVSS
B5: antibody 4 (VHH)
VHH: B4 VHH with S11L, T14A, G16D, V23T
B6: antibody 3hu (VHH)
VHH: B4 VHH with S11L, T14P, V23A, E44G, P88A, G89E, Q119L
notes: Humanized nanobody; also called humanized antibody 3

Where a chain is given by its changes, count along the chain named.

In general, EC50 refers to the concentration giving half of the maximal effect. Read a low EC50 as a more potent agent. Broadly, the IC50 is the concentration that inhibits the measured activity by half. High values mean lower potency, low ones higher potency.

T2 sequence (Q9EP73 19-238 limits assumed): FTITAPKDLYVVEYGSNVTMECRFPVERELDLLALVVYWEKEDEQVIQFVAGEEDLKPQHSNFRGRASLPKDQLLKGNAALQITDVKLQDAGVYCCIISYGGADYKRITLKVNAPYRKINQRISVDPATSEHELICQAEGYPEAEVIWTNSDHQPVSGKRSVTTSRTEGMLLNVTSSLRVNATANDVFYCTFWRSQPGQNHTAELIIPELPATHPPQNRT
Chain of PD-L1-Biotin (Q9NZQ7 19-238 limits assumed): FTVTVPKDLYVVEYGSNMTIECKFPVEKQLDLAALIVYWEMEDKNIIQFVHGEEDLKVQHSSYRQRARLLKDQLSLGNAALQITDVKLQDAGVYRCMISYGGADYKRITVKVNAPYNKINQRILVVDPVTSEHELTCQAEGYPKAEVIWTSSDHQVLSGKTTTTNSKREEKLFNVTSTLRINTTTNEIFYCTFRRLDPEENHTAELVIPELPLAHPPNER

The target in the first assay is T1, Cynomolgus/Rhesus macaque PD-L1-hFc protein (ACRO Biosystems) (Cynomolgus/Rhesus macaque, UniProt G7PSE7 19-238).
T1 construct: Bought protein; also called Cyno PD-L1; cynomolgus monkey PD-L1
T1 sequence (G7PSE7 entry or part of it limits assumed, form in doubt): as the sequence (Q9NZQ7 19-238 limits assumed) above, with A33T, A34S, S62N, R68Q, Q82R, F173L, T185A, T192I, H215L counted along it
In words: ELISA, plate coated with Cynomolgus/Rhesus macaque PD-L1-hFc. The method, then: (§1) A 96-well plate was coated with 1 μg/mL Cynomolgus/Rhesus macaque PD-L1-hFc protein (manufacturer: ACRO Biosystems) and incubated at 4° C. overnight. The plate was washed with wash buffer and then blocked with a PBS solution containing 2% BSA for 60 minutes. After a wash with wash buffer, different concentrations of the antibodies to be tested (the initial concentration was 100 nM, and 4-fold gradient dilution was performed) were added, and the plate was incubated at 37° C. for 120 minutes. The plate was washed with wash buffer, and an HRP-labeled goat anti-human secondary antibody (diluted at 1:10,000, manufacturer: Jackson) was then added. The plate was incubated at 37° C. for 60 minutes. The plate was washed with wash buffer, and TMB substrate solution was added at 100 μL/well. After 10-15 minutes of reaction at room temperature, 100 μL of 2 M hydrochloric acid stop solution was added to stop the reaction.
On the technique in general: ELISA stands for enzyme-linked immunosorbent assay.
On to B1, for which it took 133 pM to reach a half-maximal effect (EC50).
Same read-out and setting: as for B2, the figure is 34 pM.
The same measure, in the same setting: to B3 belongs 136 pM.
The same measure, in the same setting: to B4 belongs 40 pM; to B5, 34 pM.

Another assay addresses T2, mouse PD-L1-hFc protein (ACRO Biosystems) (mouse, UniProt Q9EP73 19-238).
T2 construct: Bought protein; not shown: human Fc (hFc)
In words: ELISA, plate coated with mouse PD-L1-hFc. The method, then: as §1, with “mouse” for “Cynomolgus/Rhesus macaque”, “and” for “and then”, “1:10,000)” for “1:10,000, manufacturer: Jackson)”, “reaction, and OD450 values were measured with a microplate reader.” for “reaction.”
With B1, the binding result is given as “no binding (tested: initial concentration 100 nM)”.
As to B2, the binding result is on record as “no binding (tested: initial concentration 100 nM)”.
On the same count and under the same terms, as for B3, the entry is “no binding (tested: initial concentration 100 nM)”.
Still for that read-out and setting: as for B4, the entry is “no binding (tested: initial concentration 100 nM)”; as for B5, “no binding (tested: initial concentration 100 nM)”.

The target of the next assay is PD-L1-Biotin (UniProt Q9NZQ7 19-238, limits assumed, biotin label (site not stated)). In words: competitive flow cytometry: antibody premixed with PD-L1-Biotin, blocking of binding to 293T-hPD1 cells. The protocol:
The blocking of PD-L1 binding to its ligand PD-1 by the humanized antibodies was measured using a method based on competitive flow cytometry. 293T-hPD1 cells were added to a 96-well plate at 1×10⁵ cells/well. Different concentrations of the antibodies to be tested (the initial working concentration was 200 nM, and 4-fold dilution was performed) were mixed with a PD-L1-Biotin dilution (2 μg/mL, 50 μL/well), and the mixtures were incubated at room temperature for 30 minutes. Then the mixtures were added to the cells at 100 μL/well and well mixed. The plate was incubated at 4° C. for 60 minutes, and the blocking activity of the antibodies was measured using a PE fluorescently labeled streptavidin flow cytometry antibody. The mean fluorescence values were measured. Then antibody-antigen blocking reaction curves were generated using geometric values, and four-parameter plots were generated using the Graphpad Prism V6.0 software.
A general note: In flow cytometry, cells or beads pass a laser one at a time.
The molecule B1 came in with a concentration for half-maximal inhibition (IC50) of 4200 pM.
The molecule B3 registered an IC50 of 2700 pM.
Still for that read-out and setting: as for B4, the figure is 1100 pM; as for B5, 2800 pM.

The target in another assay is T3, human PD-L1 on cells (human, UniProt Q9NZQ7 19-290).
T3 construct: whole, on cells; Same protein on three cell lines; also called hPD-L1; the antigen
T3 sequence (Q9NZQ7 19-290): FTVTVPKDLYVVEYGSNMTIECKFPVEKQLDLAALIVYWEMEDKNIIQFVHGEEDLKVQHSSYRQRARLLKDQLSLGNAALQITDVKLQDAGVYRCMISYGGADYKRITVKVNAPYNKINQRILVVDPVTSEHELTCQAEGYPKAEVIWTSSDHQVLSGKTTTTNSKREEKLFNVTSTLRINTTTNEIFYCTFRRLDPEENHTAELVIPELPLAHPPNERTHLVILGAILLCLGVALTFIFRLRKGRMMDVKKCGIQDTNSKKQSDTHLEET
Nature of the assay: flow cytometry on MC38-hPD-L1 cells overexpressing human PD-L1. The protocol:
The binding activity of the humanized antibodies to PD-L1 was measured by flow cytometry. An MC38-hPD-L1 cell line that overexpresses human PD-L1 (manufacturer: Kyinno Biotechnology (Beijing) Co., Ltd.) was thawed, and the cells were added to a 96-well plate at 1×10⁵ cells/well. Different concentrations of the antibodies to be tested (the initial concentration was 100 nM, and 5-fold gradient dilution was performed) were added, and the plate was incubated at 4° C. for 30 minutes. A fluorescently labeled goat anti-human IgG secondary antibody (manufacturer: abcam, catalog No. 98596) was then added to detect antibodies bound to the cell surfaces. Antibody-antigen binding dose response curves were generated using geometric values, and four-parameter raw data were plotted using the Graphpad Prism V6.0 software.
Molecule B1 gave an EC50 of 41 pM.
For the molecule B3, the EC50 was 140 pM.
In turn, B4 gave an EC50 of 25 pM.
B6 yielded an EC50 of 25 pM.
Still for that read-out and setting: to B5 belongs 160 pM.

Another assay deals with T3, human PD-L1 on cells. In words: competitive flow cytometry on 293T-PD-L1 cells, blocking of human-CD80-mFc binding. The method, then:
The blocking of PD-L1 binding to CD-80 by the antibodies was measured using a competitive flow cytometry method. 293T-PD-L1 cells were added to a 96-well plate at 1×10⁵ cells/well. Antibody dilutions with different concentrations (the initial working concentration was 200 nM, and 4-fold dilution was performed) were added to the cells, and the plate was incubated at 4° C. for 30 minutes. After the incubation, the plate was washed with PBS containing 2% FBS and centrifuged at 1200 rpm for 4 minutes, and the supernatants were discarded. Then human-CD80-mFc (2 μg/mL, manufacturer: ACRO) was added at 100 μL/well, and the plate was incubated in the dark at 4° C. for 30 minutes. After the incubation, the plate was washed with PBS containing 2% FBS. A fluorescently labeled goat anti-mouse IgG secondary antibody diluted at 1:200 was added at 100 μL/well, and the plate was incubated in the dark at 4° C. for 30 minutes. After the incubation, the plate was washed with PBS containing 2% FBS and tested on a flow cytometer. The mean fluorescence values were measured.
Turning to B1, the IC50 was 2600 pM.
In turn, B3 displayed an IC50 of 1500 pM.
As to B4, the IC50 is 5200 pM.
B5 displayed an IC50 of 1500 pM.

The next assay addresses T3, human PD-L1 on cells. In words: cell-based or functional assay.
B1: the “IC50 (nM), NFAT-luciferase reporter gene assay” value amounted to 0.378 nM.
On the same count and under the same terms, as for B2, the figure is 0.305 nM; as for B3, 0.2 nM; as for B4, 0.211 nM.
As to B5, the “IC50 (nM), NFAT-luciferase reporter gene assay” value was 0.26 nM.
